Data on five molecules can be found in patent US20140087995A1 (published 2014).

Numbered stars: 1 amine (or outer) side, 2 acyl side, 3 side chain; on linkers, the order of the positions; unused ones are H or OH. Bridge positions count the residues as written; N and C are the ends. Side chains are listed from the residue outwards. Ends that are not written are not given here. * marks the point of attachment. C20 diacid = O=C(O)CCCCCCCCCCCCCCCCCCC(=O)*; γGlu = O=C(O)[C@H](CCC(=O)[*:2])N[*:1]

To fix the notation:
T1: human amylin receptor (human, UniProt P30988 25-474; O60896 24-148, limits assumed)
T1 construct: whole, on cells; Used as cell membranes prepared from the Amylin 3(a)/CRE-luc BHK cells (Assay V); also called hAmylin-R; hAmylinR
T1 sequence (looked up) 1: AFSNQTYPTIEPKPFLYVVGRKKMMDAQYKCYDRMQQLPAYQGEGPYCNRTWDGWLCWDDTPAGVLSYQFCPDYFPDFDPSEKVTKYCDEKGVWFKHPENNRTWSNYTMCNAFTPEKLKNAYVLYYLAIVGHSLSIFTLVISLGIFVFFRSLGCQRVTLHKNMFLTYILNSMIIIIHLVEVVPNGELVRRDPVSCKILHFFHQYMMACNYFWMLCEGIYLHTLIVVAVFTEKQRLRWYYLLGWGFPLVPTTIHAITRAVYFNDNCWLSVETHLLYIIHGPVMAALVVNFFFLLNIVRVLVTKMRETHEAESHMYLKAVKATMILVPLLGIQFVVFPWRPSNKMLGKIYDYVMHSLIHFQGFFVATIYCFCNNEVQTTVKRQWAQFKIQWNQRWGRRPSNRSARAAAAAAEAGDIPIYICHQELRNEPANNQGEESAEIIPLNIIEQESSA
T1 sequence (looked up) 2: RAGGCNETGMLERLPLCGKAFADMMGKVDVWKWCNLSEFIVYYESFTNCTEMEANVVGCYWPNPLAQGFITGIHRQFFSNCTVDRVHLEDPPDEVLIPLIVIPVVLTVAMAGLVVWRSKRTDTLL

B1: N^ε1-[(4S)-4-carboxy-4-(19-carboxynonadecanoylamino)butanoyl]-[Arg17,Pro21,Pro27,Glu35]-h-amylin (peptide)
peptide: K([γGlu-C20 diacid])CNTATCATQRLANFLRHSSPNFGAIPSSTNVGSETY-NH2
modifications: disulfide 2-7; N-terminus assumed
SMILES: CC[C@H](C)[C@H](NC(=O)[C@H](C)NC(=O)CNC(=O)[C@H](Cc1ccccc1)NC(=O)[C@H](CC(N)=O)NC(=O)[C@@H]1CCCN1C(=O)[C@H](CO)NC(=O)[C@H](CO)NC(=O)[C@H](Cc1c[nH]cn1)NC(=O)[C@H](CCCNC(=N)N)NC(=O)[C@H](CC(C)C)NC(=O)[C@H](Cc1ccccc1)NC(=O)[C@H](CC(N)=O)NC(=O)[C@H](C)NC(=O)[C@H](CC(C)C)NC(=O)[C@H](CCCNC(=N)N)NC(=O)[C@H](CCC(N)=O)NC(=O)[C@@H](NC(=O)[C@H](C)NC(=O)[C@@H]1CSSC[C@H](NC(=O)[C@@H](N)CCCCNC(=O)CC[C@H](NC(=O)CCCCCCCCCCCCCCCCCCC(=O)O)C(=O)O)C(=O)N[C@@H](CC(N)=O)C(=O)N[C@@H]([C@@H](C)O)C(=O)N[C@@H](C)C(=O)N[C@@H]([C@@H](C)O)C(=O)N1)[C@@H](C)O)C(=O)N1CCC[C@H]1C(=O)N[C@@H](CO)C(=O)N[C@@H](CO)C(=O)N[C@H](C(=O)N[C@@H](CC(N)=O)C(=O)N[C@H](C(=O)NCC(=O)N[C@@H](CO)C(=O)N[C@@H](CCC(=O)O)C(=O)N[C@H](C(=O)N[C@@H](Cc1ccc(O)cc1)C(N)=O)[C@@H](C)O)C(C)C)[C@@H](C)O
notes: also called compound 27
B2: N^ε1-[(4S)-4-carboxy-4-[[(4S)-4-carboxy-4-(19-carboxynonadecanoylamino)butanoyl]amino]butanoyl]-[Glu14,Arg17,Pro21,Pro27,His34,Glu35]-h-amylin (peptide)
peptide: K([γGlu-γGlu-C20 diacid])CNTATCATQRLAEFLRHSSPNFGAIPSSTNVGHETY-NH2
modifications: disulfide 2-7; N-terminus assumed
SMILES: CC[C@H](C)[C@H](NC(=O)[C@H](C)NC(=O)CNC(=O)[C@H](Cc1ccccc1)NC(=O)[C@H](CC(N)=O)NC(=O)[C@@H]1CCCN1C(=O)[C@H](CO)NC(=O)[C@H](CO)NC(=O)[C@H](Cc1c[nH]cn1)NC(=O)[C@H](CCCNC(=N)N)NC(=O)[C@H](CC(C)C)NC(=O)[C@H](Cc1ccccc1)NC(=O)[C@H](CCC(=O)O)NC(=O)[C@H](C)NC(=O)[C@H](CC(C)C)NC(=O)[C@H](CCCNC(=N)N)NC(=O)[C@H](CCC(N)=O)NC(=O)[C@@H](NC(=O)[C@H](C)NC(=O)[C@@H]1CSSC[C@H](NC(=O)[C@@H](N)CCCCNC(=O)CC[C@H](NC(=O)CC[C@H](NC(=O)CCCCCCCCCCCCCCCCCCC(=O)O)C(=O)O)C(=O)O)C(=O)N[C@@H](CC(N)=O)C(=O)N[C@@H]([C@@H](C)O)C(=O)N[C@@H](C)C(=O)N[C@@H]([C@@H](C)O)C(=O)N1)[C@@H](C)O)C(=O)N1CCC[C@H]1C(=O)N[C@@H](CO)C(=O)N[C@@H](CO)C(=O)N[C@H](C(=O)N[C@@H](CC(N)=O)C(=O)N[C@H](C(=O)NCC(=O)N[C@@H](Cc1c[nH]cn1)C(=O)N[C@@H](CCC(=O)O)C(=O)N[C@H](C(=O)N[C@@H](Cc1ccc(O)cc1)C(N)=O)[C@@H](C)O)C(C)C)[C@@H](C)O
B3: N^ε1-[(4S)-4-carboxy-4-[[(4S)-4-carboxy-4-(19-carboxynonadecanoylamino)butanoyl]amino]butanoyl]-[Asp14,Arg17,Pro21,Pro27,Asp35]-h-amylin (peptide)
peptide: K([γGlu-γGlu-C20 diacid])CNTATCATQRLADFLRHSSPNFGAIPSSTNVGSDTY-NH2
modifications: disulfide 2-7; N-terminus assumed
SMILES: CC[C@H](C)[C@H](NC(=O)[C@H](C)NC(=O)CNC(=O)[C@H](Cc1ccccc1)NC(=O)[C@H](CC(N)=O)NC(=O)[C@@H]1CCCN1C(=O)[C@H](CO)NC(=O)[C@H](CO)NC(=O)[C@H](Cc1c[nH]cn1)NC(=O)[C@H](CCCNC(=N)N)NC(=O)[C@H](CC(C)C)NC(=O)[C@H](Cc1ccccc1)NC(=O)[C@H](CC(=O)O)NC(=O)[C@H](C)NC(=O)[C@H](CC(C)C)NC(=O)[C@H](CCCNC(=N)N)NC(=O)[C@H](CCC(N)=O)NC(=O)[C@@H](NC(=O)[C@H](C)NC(=O)[C@@H]1CSSC[C@H](NC(=O)[C@@H](N)CCCCNC(=O)CC[C@H](NC(=O)CC[C@H](NC(=O)CCCCCCCCCCCCCCCCCCC(=O)O)C(=O)O)C(=O)O)C(=O)N[C@@H](CC(N)=O)C(=O)N[C@@H]([C@@H](C)O)C(=O)N[C@@H](C)C(=O)N[C@@H]([C@@H](C)O)C(=O)N1)[C@@H](C)O)C(=O)N1CCC[C@H]1C(=O)N[C@@H](CO)C(=O)N[C@@H](CO)C(=O)N[C@H](C(=O)N[C@@H](CC(N)=O)C(=O)N[C@H](C(=O)NCC(=O)N[C@@H](CO)C(=O)N[C@@H](CC(=O)O)C(=O)N[C@H](C(=O)N[C@@H](Cc1ccc(O)cc1)C(N)=O)[C@@H](C)O)C(C)C)[C@@H](C)O
notes: also called compound 2
B4: N^ε1-[(4S)-4-carboxy-4-(19-carboxynonadecanoylamino)butanoyl]-[Arg17,Pro21,Pro27,Lys35]-h-amylin (peptide)
peptide: K([γGlu-C20 diacid])CNTATCATQRLANFLRHSSPNFGAIPSSTNVGSKTY-NH2
modifications: disulfide 2-7; N-terminus assumed
SMILES: CC[C@H](C)[C@H](NC(=O)[C@H](C)NC(=O)CNC(=O)[C@H](Cc1ccccc1)NC(=O)[C@H](CC(N)=O)NC(=O)[C@@H]1CCCN1C(=O)[C@H](CO)NC(=O)[C@H](CO)NC(=O)[C@H](Cc1c[nH]cn1)NC(=O)[C@H](CCCNC(=N)N)NC(=O)[C@H](CC(C)C)NC(=O)[C@H](Cc1ccccc1)NC(=O)[C@H](CC(N)=O)NC(=O)[C@H](C)NC(=O)[C@H](CC(C)C)NC(=O)[C@H](CCCNC(=N)N)NC(=O)[C@H](CCC(N)=O)NC(=O)[C@@H](NC(=O)[C@H](C)NC(=O)[C@@H]1CSSC[C@H](NC(=O)[C@@H](N)CCCCNC(=O)CC[C@H](NC(=O)CCCCCCCCCCCCCCCCCCC(=O)O)C(=O)O)C(=O)N[C@@H](CC(N)=O)C(=O)N[C@@H]([C@@H](C)O)C(=O)N[C@@H](C)C(=O)N[C@@H]([C@@H](C)O)C(=O)N1)[C@@H](C)O)C(=O)N1CCC[C@H]1C(=O)N[C@@H](CO)C(=O)N[C@@H](CO)C(=O)N[C@H](C(=O)N[C@@H](CC(N)=O)C(=O)N[C@H](C(=O)NCC(=O)N[C@@H](CO)C(=O)N[C@@H](CCCCN)C(=O)N[C@H](C(=O)N[C@@H](Cc1ccc(O)cc1)C(N)=O)[C@@H](C)O)C(C)C)[C@@H](C)O
notes: also called compound 35
B5: N^ε1-[(4S)-4-carboxy-4-[[(4S)-4-carboxy-4-(19-carboxynonadecanoylamino)butanoyl]amino]butanoyl]-[Glu14,Arg17,Pro21,Pro27,Arg34,Glu35]-h-amylin (peptide)
peptide: K([γGlu-γGlu-C20 diacid])CNTATCATQRLAEFLRHSSPNFGAIPSSTNVGRETY-NH2
modifications: disulfide 2-7; N-terminus assumed
SMILES: CC[C@H](C)[C@H](NC(=O)[C@H](C)NC(=O)CNC(=O)[C@H](Cc1ccccc1)NC(=O)[C@H](CC(N)=O)NC(=O)[C@@H]1CCCN1C(=O)[C@H](CO)NC(=O)[C@H](CO)NC(=O)[C@H](Cc1c[nH]cn1)NC(=O)[C@H](CCCNC(=N)N)NC(=O)[C@H](CC(C)C)NC(=O)[C@H](Cc1ccccc1)NC(=O)[C@H](CCC(=O)O)NC(=O)[C@H](C)NC(=O)[C@H](CC(C)C)NC(=O)[C@H](CCCNC(=N)N)NC(=O)[C@H](CCC(N)=O)NC(=O)[C@@H](NC(=O)[C@H](C)NC(=O)[C@@H]1CSSC[C@H](NC(=O)[C@@H](N)CCCCNC(=O)CC[C@H](NC(=O)CC[C@H](NC(=O)CCCCCCCCCCCCCCCCCCC(=O)O)C(=O)O)C(=O)O)C(=O)N[C@@H](CC(N)=O)C(=O)N[C@@H]([C@@H](C)O)C(=O)N[C@@H](C)C(=O)N[C@@H]([C@@H](C)O)C(=O)N1)[C@@H](C)O)C(=O)N1CCC[C@H]1C(=O)N[C@@H](CO)C(=O)N[C@@H](CO)C(=O)N[C@H](C(=O)N[C@@H](CC(N)=O)C(=O)N[C@H](C(=O)NCC(=O)N[C@@H](CCCNC(=N)N)C(=O)N[C@@H](CCC(=O)O)C(=O)N[C@H](C(=O)N[C@@H](Cc1ccc(O)cc1)C(N)=O)[C@@H](C)O)C(C)C)[C@@H](C)O

The test has as its target T1, human amylin receptor. The test is described as follows: SPA competition vs 125I-rat amylin, membranes of amylin 3(a) receptor BHK cells (Assay V). On the procedure: The binding assay was performed using scintillation proximity assay (SPA) beads (RPNQ0001) from PerkinElmer and cell membranes from the Amylin 3(a)/CRE-luc cells (as described in Assay (II)) were used. Membranes were prepared in the following way; the cells were rinsed with PBS and incubated with Versene for approximately 5 min before harvesting. The cells were flushed with PBS and the cell-suspension was centrifuged for 5 min at 1000 rpm. Cells were homogenized (ultrathurrax) in a buffer containing 20 mM Na-HEPES and 10 mM EDTA (pH 7.4) and centrifuged at 20.000 rpm for 15 min. The resulting pellet was resuspended, homogenized and centrifuged (20.000 rpm, 15 min) in a buffer containing 20 mM Na-HEPES and 0.1 mM EDTA (pH 7.4, buffer 2). The resulting pellet was resuspended in buffer 2 and protein concentration was measured (BCA protein Assay, Pierce). The homogenate was kept cold during the whole procedure. The membranes were kept at −80° C. until use. The assay was performed in a 384 well Optiplate (PerkinElmer) in a total volume of 40 ul. Membranes were mixed with SPA beads. Final concentration of membranes 35 ng/μL final and SPA beads was 0.05 mg/well. Test-compounds were dissolved in DMSO and further diluted in assay buffer (50 mM Hepes, pH 7.4, 1 mM CaCl2, 5 mM MgCl₂, 0.1% OA and 0.02% Tween20). […] The final mixture was incubated with shaking at 400 rpm for 120 min at 25° C. prior to centrifugation (1500 rpm, 10 min). Samples were analyzed on TopCounter™ (Packard). The IC₅₀ was calculated using (one site binding competition analysis) GraphPad Prism5 as a measure of receptor affinity.
Broadly, the IC50 is the concentration that gives 50% inhibition. Low readings indicate greater potency in that assay, high ones weaker potency in that assay. B1 registered a half-inhibitory concentration (IC50) of 0.837 nM.
Regarding B2, the IC50 worked out at 0.525 nM.
Turning to B3, the IC50 came to 0.411 nM.
On to B4, for which the half-inhibitory concentration (IC50) was 0.97 nM.
In turn, B5 returned an IC50 of 0.957 nM.
